# Key:
# HLA-B*58:01 = test: IEDB peptide-MHC binding, purified MHC/competitive/fluorescence; filed as Kd, often an IC50 or EC50 that approximates it; ≥ and ≤ were set here for values at or beyond the usual limits of such assays; details: source organism: Pseudomonas aeruginosa UCBPP-PA14
# HLA-B*27:05 = test: as above; details: source organism: Pseudomonas aeruginosa UCBPP-PA14
# HLA-B*07:02 [1] = test: as above; details: source organism: Pseudomonas aeruginosa UCBPP-PA14
# HLA-A*03:01 = test: as above
# HLA-B*15:01 [2] = test: as above
# HLA-A*26:01 = test: as above
# HLA-A*11:01 = test: as above; details: source organism: Pseudomonas aeruginosa UCBPP-PA14
# HLA-B*40:01 = test: as above; details: source organism: Pseudomonas aeruginosa UCBPP-PA14
# HLA-A*69:01 = test: as above
# HLA-A*31:01 = test: as above; details: source organism: Pseudomonas aeruginosa UCBPP-PA14
# HLA-A*24:02 = test: as above; details: source organism: Pseudomonas aeruginosa UCBPP-PA14
# HLA-A*30:01 = test: as above; details: source organism: Pseudomonas aeruginosa UCBPP-PA14
# HLA-B*08:01 = test: as above; details: source organism: Pseudomonas aeruginosa UCBPP-PA14
# HLA-A*01:01 = test: as above; details: source organism: Pseudomonas aeruginosa UCBPP-PA14
# HLA-A*68:02 = test: as above
# HLA-B*46:01 [3] = test: as above
# HLA-B*51:01 = test: as above
# HLA-B*27:03 = test: as above
# HLA-B*57:01 = test: as above
# HLA-B*18:01 = test: as above
# HLA-A*02:11 = test: as above
# HLA-A*02:16 = test: as above
# HLA-A*02:01 = test: as above
# HLA-A*29:02 = test: as above
# HLA-A*02:12 = test: as above
# HLA-B*39:01 = test: as above
# HLA-A*02:03 = test: as above
# HLA-A*02:19 = test: as above
# HLA-A*24:03 = test: as above
# HLA-A*23:01 = test: as above
# HLA-B*35:01 = test: IEDB peptide-MHC binding, purified MHC/direct/fluorescence; filed as Kd, often an IC50 or EC50 that approximates it; ≥ and ≤ were set here for values at or beyond the usual limits of such assays; details: source organism: Escherichia coli O157:H7 str. EC869
# HLA-B*07:02 [4] = test: as above; details: source organism: Escherichia coli O157:H7 str. EC869
# HLA-B*15:01 [5] = test: as above; details: source organism: Escherichia coli O157:H7
# HLA-B*15:02 = test: as above; details: source organism: Escherichia coli O157:H7 str. EC869
# HLA-B*46:01 [6] = test: as above; details: source organism: Escherichia coli O157:H7
# HLA-B*15:17 = test: IEDB peptide-MHC binding, purified MHC/competitive/fluorescence; filed as Kd, often an IC50 or EC50 that approximates it; ≥ and ≤ were set here for values at or beyond the usual limits of such assays; details: source organism: Cryptosporidium parvum Iowa II
# [7] = source organism: Pseudomonas aeruginosa UCBPP-PA14
# [8] = source organism: Giardia lamblia ATCC 50803
# [9] = source organism: Entamoeba dispar SAW760
# [10] = source organism: Cryptosporidium parvum Iowa II
sequence,measurement,setting,value
AVFDGCVVY,Kd,HLA-B*58:01,1.12 µM
same,Kd,HLA-B*27:05,≥ 20 µM
same,Kd,HLA-B*07:02 [1],≥ 20 µM
same,Kd,HLA-A*03:01; [7],0.291 µM
same,Kd,HLA-B*15:01 [2]; [7],0.11 µM
same,Kd,HLA-A*26:01; [7],≥ 20 µM
same,Kd,HLA-A*11:01,0.0306 µM
same,Kd,HLA-B*40:01,≥ 20 µM
same,Kd,HLA-A*69:01; [7],≥ 20 µM
same,Kd,HLA-A*31:01,1.26 µM
same,Kd,HLA-A*24:02,≥ 20 µM
same,Kd,HLA-A*30:01,≥ 20 µM
same,Kd,HLA-B*08:01,≥ 20 µM
same,Kd,HLA-A*01:01,≥ 20 µM
ELLDHLLLF,Kd,HLA-A*03:01; [8],≥ 20 µM
same,Kd,HLA-B*15:01 [2]; [8],≥ 20 µM
same,Kd,HLA-A*68:02; [8],≥ 20 µM
same,Kd,HLA-B*46:01 [3]; [8],≥ 20 µM
same,Kd,HLA-B*51:01; [8],≥ 20 µM
same,Kd,HLA-B*27:03; [8],≥ 20 µM
same,Kd,HLA-B*57:01; [8],≥ 20 µM
same,Kd,HLA-B*18:01; [8],≥ 20 µM
same,Kd,HLA-A*02:11; [8],≥ 20 µM
same,Kd,HLA-A*02:16; [8],≥ 20 µM
same,Kd,HLA-A*02:01; [8],≥ 20 µM
same,Kd,HLA-A*29:02; [8],0.0161 µM
same,Kd,HLA-A*02:12; [8],≥ 20 µM
same,Kd,HLA-B*39:01; [8],≥ 20 µM
same,Kd,HLA-A*02:03; [8],≥ 20 µM
same,Kd,HLA-A*02:19; [8],0.98 µM
KGFFRVFKK,Kd,HLA-A*24:03; [9],≥ 20 µM
same,Kd,HLA-A*03:01; [9],0.0049 µM
same,Kd,HLA-B*15:01 [2]; [9],≥ 20 µM
same,Kd,HLA-A*68:02; [9],≥ 20 µM
same,Kd,HLA-B*46:01 [3]; [9],≥ 20 µM
same,Kd,HLA-B*51:01; [9],≥ 20 µM
same,Kd,HLA-A*26:01; [9],≥ 20 µM
same,Kd,HLA-B*57:01; [9],≥ 20 µM
same,Kd,HLA-B*18:01; [9],≥ 20 µM
same,Kd,HLA-A*02:11; [9],≥ 20 µM
same,Kd,HLA-A*02:16; [9],≥ 20 µM
same,Kd,HLA-A*23:01; [9],≥ 20 µM
same,Kd,HLA-A*02:01; [9],≥ 20 µM
same,Kd,HLA-A*69:01; [9],≥ 20 µM
same,Kd,HLA-A*29:02; [9],0.189 µM
same,Kd,HLA-A*02:12; [9],≥ 20 µM
same,Kd,HLA-B*39:01; [9],≥ 20 µM
same,Kd,HLA-A*02:03; [9],≥ 20 µM
same,Kd,HLA-A*02:19; [9],≥ 20 µM
NIAAPYLPF,Kd,HLA-B*35:01,0.01 µM
same,Kd,HLA-B*07:02 [4],2.21 µM
same,Kd,HLA-B*15:01 [5],0.107 µM
same,Kd,HLA-B*15:02,0.013 µM
same,Kd,HLA-B*46:01 [6],≥ 20 µM
RLKHIFLIF,Kd,HLA-A*24:03; [10],≥ 20 µM
same,Kd,HLA-A*03:01; [10],≥ 20 µM
same,Kd,HLA-A*68:02; [10],≥ 20 µM
same,Kd,HLA-B*46:01 [3]; [10],≥ 20 µM
same,Kd,HLA-B*51:01; [10],≥ 20 µM
same,Kd,HLA-A*26:01; [10],≥ 20 µM
same,Kd,HLA-B*27:03; [10],≥ 20 µM
same,Kd,HLA-B*15:17,≥ 20 µM
same,Kd,HLA-B*57:01; [10],≥ 20 µM
same,Kd,HLA-B*18:01; [10],≥ 20 µM
same,Kd,HLA-A*02:11; [10],≥ 20 µM
same,Kd,HLA-A*02:16; [10],≥ 20 µM
same,Kd,HLA-A*23:01; [10],≥ 20 µM
same,Kd,HLA-A*02:01; [10],≥ 20 µM
same,Kd,HLA-A*69:01; [10],≥ 20 µM
same,Kd,HLA-A*29:02; [10],≥ 20 µM
same,Kd,HLA-A*02:12; [10],≥ 20 µM
same,Kd,HLA-B*39:01; [10],≥ 20 µM
same,Kd,HLA-A*02:03; [10],≥ 20 µM
same,Kd,HLA-A*02:19; [10],≥ 20 µM
